Positions count from the first letter of the chain named. In names and notes the source's numbering stands. Several values for one entry are separate records, joined by “and”; a condition that tells them apart may be missing. Identical values can stand only once. Values belong to the binder of their own block, whether it stands above or below them.
How the values were obtained:
[1] = target: T1, recombinant cynomolgus monkey PD-L1 expressed with a C-terminal mouse IgG2a Fc tag (cynomolgus monkey); experiment: SPR (Biacore), mAb captured, 37C
T1 construct: also called MfPD-L1-mFc; monkey PD-L1-mFc
T1 sequence (chain, as listed by the source limits assumed): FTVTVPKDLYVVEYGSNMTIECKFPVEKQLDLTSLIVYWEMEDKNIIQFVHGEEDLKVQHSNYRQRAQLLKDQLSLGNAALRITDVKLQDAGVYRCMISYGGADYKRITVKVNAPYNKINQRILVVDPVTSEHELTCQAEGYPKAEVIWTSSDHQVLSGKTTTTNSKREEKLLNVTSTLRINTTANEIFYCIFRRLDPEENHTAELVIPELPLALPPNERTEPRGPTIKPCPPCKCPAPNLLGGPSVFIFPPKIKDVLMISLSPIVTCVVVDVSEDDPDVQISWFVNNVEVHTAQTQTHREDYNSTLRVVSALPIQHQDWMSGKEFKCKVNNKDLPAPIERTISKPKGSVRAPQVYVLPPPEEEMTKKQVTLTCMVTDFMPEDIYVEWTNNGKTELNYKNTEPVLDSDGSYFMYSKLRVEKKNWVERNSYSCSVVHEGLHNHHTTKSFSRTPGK

[2] = target: T2, full length human PD-L1 (amino acids 1 to 290 of NP_054862.1) on transfected cells (human, UniProt Q9NZQ7 19-290); experiment: FACS, 100 nM antibody, HEK293/hPD-L1 cells
T2 construct: also called HEK293/hPD-L1; Raji/hPD-L1
T2 sequence (Q9NZQ7 19-290 limits assumed): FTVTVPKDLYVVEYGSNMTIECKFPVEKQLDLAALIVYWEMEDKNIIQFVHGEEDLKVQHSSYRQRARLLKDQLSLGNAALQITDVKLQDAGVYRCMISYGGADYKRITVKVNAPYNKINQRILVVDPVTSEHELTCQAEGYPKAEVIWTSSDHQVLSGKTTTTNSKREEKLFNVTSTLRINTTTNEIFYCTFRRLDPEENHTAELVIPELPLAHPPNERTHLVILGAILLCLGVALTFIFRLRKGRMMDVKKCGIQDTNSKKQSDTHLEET
Method: (§1) The binding of anti-PD-L1 antibodies to a human embryonic kidney cell line (HEK293; ATCC, #CRL-1573) stably transfected with full length human PD-L1 (amino acids 1 to 290 of accession number NP_054862.1) (HEK293/hPD-L1) was determined by FACS.
(§2) For the assay, adherent cells were detached using enzyme-free dissociation buffer and blocked with complete medium. Cells were centrifuged and resuspended at a concentration of 2.8×10\hat{ }6 cells/mL in cold PBS containing 2% FBS. […] Cells were washed with D-PBS containing 2% FBS to remove unbound secondary detection reagents and fluorescence measurements were acquired using a HyperCyte (IntelliCyt, Inc.) flow cytometer. Data was analyzed using HyperCyte software.

[3] = target: T3, recombinant human PD-L1 (amino acids 19-239 of NP_054862.1) expressed with a C-terminal human IgG1 Fc tag (human); experiment: SPR (Biacore 3000): 100 nM hPD-L1-hFc + 500 nM mAb on captured hPD-1-mFc, 25C
T3 construct: also called hPD-L1-hFc
T3 sequence (chain, as listed by the source limits assumed): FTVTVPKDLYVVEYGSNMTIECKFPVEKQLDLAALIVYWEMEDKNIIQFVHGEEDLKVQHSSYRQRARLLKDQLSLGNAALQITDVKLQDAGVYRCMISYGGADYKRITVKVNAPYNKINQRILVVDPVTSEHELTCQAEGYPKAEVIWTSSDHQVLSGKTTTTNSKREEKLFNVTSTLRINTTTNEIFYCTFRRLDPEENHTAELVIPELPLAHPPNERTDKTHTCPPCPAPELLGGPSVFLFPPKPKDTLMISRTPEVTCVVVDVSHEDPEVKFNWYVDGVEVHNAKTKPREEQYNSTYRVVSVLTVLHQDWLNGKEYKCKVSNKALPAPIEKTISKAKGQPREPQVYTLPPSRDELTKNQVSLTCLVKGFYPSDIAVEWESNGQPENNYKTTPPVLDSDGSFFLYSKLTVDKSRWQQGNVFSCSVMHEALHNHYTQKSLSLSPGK
Method: Next, inhibition studies for anti-PD-L1 monoclonal antibodies expressed with human Fc were performed on Biacore 3000 instrument. […] The entire experiment was performed at 25° C. in HBST running buffer (0.01 M HEPES pH7.4, 0.15M NaCl, 3 mM EDTA, 0.05% v/v Surfactant P20). The real-time binding responses were monitored during the entire course of the experiment and the binding response at the end of every step was recorded.

[4] = target: T4, recombinant human PD-L1 (amino acids 19-239 of NP_054862.1) expressed with a C-terminal mouse IgG2a Fc tag (human); experiment: competition ELISA: 8 nM hPD-L1-mFc binding to coated hB7-1-hFc-6His
T4 construct: called dimeric; also called hPD-L1-mFc
T4 sequence (chain, as listed by the source limits assumed): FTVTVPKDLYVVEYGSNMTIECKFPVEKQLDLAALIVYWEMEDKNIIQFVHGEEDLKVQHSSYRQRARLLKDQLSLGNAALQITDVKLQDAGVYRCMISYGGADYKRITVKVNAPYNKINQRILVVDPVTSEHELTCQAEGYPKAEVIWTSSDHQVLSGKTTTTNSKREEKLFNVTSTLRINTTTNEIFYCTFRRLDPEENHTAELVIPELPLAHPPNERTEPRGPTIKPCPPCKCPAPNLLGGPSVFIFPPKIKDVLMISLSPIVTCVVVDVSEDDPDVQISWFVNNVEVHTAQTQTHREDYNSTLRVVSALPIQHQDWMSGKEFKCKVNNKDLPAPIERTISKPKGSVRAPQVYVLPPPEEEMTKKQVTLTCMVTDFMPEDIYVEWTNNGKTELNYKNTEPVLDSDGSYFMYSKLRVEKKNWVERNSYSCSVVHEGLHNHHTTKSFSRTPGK
Method: (§3) The ability of monoclonal anti-PD-L1 antibodies to block human PD-L1 from binding to its binding partners, the human PD-1 and the human B7-1 receptors, was measured using two competition sandwich ELISA formats.
(§4) A dimeric human PD-1 protein comprised of a portion of the extracellular domain (amino acids 25-170 of accession number NP_005009.2 with a C93S change) that was expressed with a C-terminal hFc tag (hPD-1-hFc; SEQ ID: 350) and a dimeric human B7-1 protein comprised of a portion of the extracellular domain expressed with C-terminal hFc tag and hexahistidine tags (hB7-1-hFc-6His; R&D Systems, #140-B1) were separately coated at 2 μg/mL on a 96-well microtiter plate in a PBS buffer overnight at 4° C. […] These antibody-protein complexes were then incubated for 1 hour at room temperature (RT). […] The complexes were allowed to bind to the coated plates for 1 hour at RT. […] Samples were developed with a TMB solution (BD Biosciences, #51-2606KC and #51-2607KC) to produce a colorimetric reaction and neutralized with 1M sulfuric acid before measuring absorbance at 450 nm on a Victor X5 plate reader. Data analysis used a sigmoidal dose-response model within Prism™ software.

[5] = target: T4, recombinant human PD-L1 (amino acids …); experiment: competition ELISA: 0.5 nM hPD-L1-mFc binding to coated hPD-1-hFc
Method: as §3, §4

[6] = target: T2, full length human PD-L1 (amino acids 1 …); experiment: FACS, 100 nM antibody
Method: as §1, §2

[7] = target: T2, full length human PD-L1 (amino acids 1 …); experiment: cell-based or functional assay
[8] = target: T4, recombinant human PD-L1 (amino acids …); experiment: BLI (Octet Red96): 100 nM hPD-L1-mFc + 500 nM mAb on captured hPD-1-hFc, 25C
Method: Inhibition studies for anti-PD-L1 monoclonal antibodies expressed with mouse Fc were performed on an Octet Red96 instrument. […] Approximately 0.8 nm to 1.2 nm of recombinant human PD-1 expressed with a C-terminal human IgG1 Fc tag (hPD-1-hFc; SEQ ID: 350) was captured using anti-human IgG Fc capture biosensors. […] The entire experiment was performed at 25° C. in Octet HBST buffer (0.01 M HEPES pH7.4, 0.15M NaCl, 3 mM EDTA, 0.05% v/v Surfactant P20, 0.1 mg/mL BSA) with a plate shaking at a speed of 1000 rpm. The biosensors were washed in Octet HBST buffer in between each step of the experiment. The real-time binding response was monitored during the course of the experiment and the binding response at the end of every step was recorded.

B1: H1H9364P2 (antibody, V domains shown)
VH: EVQLVESGGGLVQPGRSLRLSCAASGFTFDDYALHWVRQAPGKGLEWVSGISWTGGTIDYADSVKGRFTISRDNAKNSLYLQMSSLRTEDTAIYYCTRDIRGNWKYGGWFDPWGQGTLVTVSS
VL: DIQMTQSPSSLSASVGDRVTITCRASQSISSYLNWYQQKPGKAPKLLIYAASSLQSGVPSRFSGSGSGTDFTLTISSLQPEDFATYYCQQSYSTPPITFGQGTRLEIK
notes: human IgG1 Fc (H1H prefix)
Kd [1]: 0.0471 nM and 0.028 nM
koff [1]: 0.000111 s⁻¹ and 6.76e-05 s⁻¹
kon [1]: 2.36e+06 M⁻¹ s⁻¹ and 2.41e+06 M⁻¹ s⁻¹
t1/2 [1]: 1.73 h and 2.85 h
MFI [2]: 324000 MFI
% Blocking [3]: 86%
% maximum blocking [4]: 101%
IC50 [4]: 4.1 nM
% maximum blocking [5]: 100%
IC50 [5]: < 0.25 nM
Ratio of HEK293/hPD-L1 to HEK293 parental cells [6]: 157

B5: H2aM8312N (antibody, V domains shown)
VH: QVHLVQSGAEVKKPGASVKVSCKASGYTFTGYYIHWVRQAPGHGLEWMGWLNPNTGTTKYIQNFQGRVTMTRDTSSSTAYMELTRLRSDDTAVYYCARDEDWNYGSWFDTWGQGTLVTVSS
VL: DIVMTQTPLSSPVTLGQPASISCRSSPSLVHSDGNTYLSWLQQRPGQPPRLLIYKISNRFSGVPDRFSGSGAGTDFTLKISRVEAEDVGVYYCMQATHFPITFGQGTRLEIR
notes: human variable regions, mouse IgG2 Fc (H2aM prefix); also called H2M8312N
MFI [2]: 158000 MFI
% maximum blocking [4]: 98%
IC50 [4]: < 4 nM
% maximum blocking [5]: 23%
Emax mean [%] @ 100 nM [7]: 75.6%
Ratio of HEK293/hPD-L1 to HEK293 parental cells [6]: 115
% Blocking [8]: -68%

B6: H2aM8309N (antibody, V domains shown)
VH: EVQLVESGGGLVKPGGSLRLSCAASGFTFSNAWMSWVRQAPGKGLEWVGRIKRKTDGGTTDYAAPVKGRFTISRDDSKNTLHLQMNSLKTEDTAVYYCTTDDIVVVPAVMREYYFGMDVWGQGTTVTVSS
VL: DIQMTQSPSSLSASVGDRVTITCRTSQGIRNDLGWYQQKPGKAPKRLIYAASSLQSGVPSRFSGSGSGTEFTLTISSLQPEDFATYYCLQHNNYPYTFGQGTKLEIK
notes: human variable regions, mouse IgG2 Fc (H2aM prefix); also called H2M8309N
MFI [2]: 193000 MFI
% maximum blocking [4]: 98%
IC50 [4]: < 4 nM
% maximum blocking [5]: 98%
IC50 [5]: < 0.25 nM
Concentration [M] of Antibody at 125% activation [7]: 3.09e-10 M
Emax mean [%] @ 100 nM [7]: 181%
Ratio of HEK293/hPD-L1 to HEK293 parental cells [6]: 166
% Blocking [8]: 94%

B7: H1H9329P (antibody, V domains shown)
VH: EVQLVESGGGLVQSGGSLRLSCAASGFTFSSYWMSWVRQAPGKGLEWVANIKQDGSEKYYVDSVKGRFTISRDNAKNSLYLQMNSLRADDTAVYYCARDDIVVVPAPMGYYYYYFGMDVWGQGTTVTVSS
VL: B6 VL with T25A, N93S
notes: human IgG1 Fc (H1H prefix)
Kd [1]: 0.708 nM
koff [1]: 0.00154 s⁻¹
kon [1]: 2.18e+06 M⁻¹ s⁻¹
t1/2 [1]: 0.133 h
MFI [2]: 282000 MFI
% Blocking [3]: 97%
% maximum blocking [4]: 100%
IC50 [4]: 4.9 nM
% maximum blocking [5]: 100%
IC50 [5]: < 0.25 nM
Emax mean [%] @ 100 nM [7]: 124%
Ratio of HEK293/hPD-L1 to HEK293 parental cells [6]: 188

B8: H2aM8314N (antibody, V domains shown)
VH: EVQLVESGGGVVRPGGSLRLSCAASGFTFDDYGMTWVRQAPGRGLEWVSGIHWHGKRTGYADSVKGRFTISRDNAKKSLYLQMNSLKGEDTALYHCVRGGMSTGDWFDPWGQGTLVIVSS
VL: DIQMTQSPSSLSASLGDRVTITCRASQSINSYLNWYQQKPGKAPKLLIYVASSLQSGVPSRFSGSGSGTEFTLTISNLQPEDFATYYCQQSYSTPPITFGQGTRLEIK
notes: human variable regions, mouse IgG2 Fc (H2aM prefix); also called H2M8314N
MFI [2]: 195000 MFI
% maximum blocking [4]: 97%
IC50 [4]: < 4 nM
% maximum blocking [5]: 93%
IC50 [5]: < 0.25 nM
Concentration [M] of Antibody at 125% activation [7]: 1.44e-11 M
Emax mean [%] @ 100 nM [7]: 235%
Ratio of HEK293/hPD-L1 to HEK293 parental cells [6]: 95
% Blocking [8]: 94%

B9: H2aM8321N (antibody, V domains shown)
VH: EERLVESGGDLVQPGGSLRLSCAASGITVGTNYMNWVRQAPGKGLEWVSVISSGGNTHYADSVKGRFIMSRQTSKNTLYLQMNSLETEDTAVYYCARGIRGLDVWGQGTMVTVSS
VL: B8 VL with L15V, I29M, N30S, K42R, Y49F, V50A, E70D, N77S
notes: human variable regions, mouse IgG2 Fc (H2aM prefix); also called H2M8321N
MFI [2]: 112000 MFI
% maximum blocking [4]: -124%
% maximum blocking [5]: 10%
Emax mean [%] @ 100 nM [7]: 117%
Ratio of HEK293/hPD-L1 to HEK293 parental cells [6]: 85
% Blocking [8]: -94%

B10: H2aM8317N (antibody, V domains shown)
VH: EVQLVESGGGLVQPGGSLRLSCAASGFTVGSNYMNWVRQAPGKGLEWVSVIYSGGSTYYADSVKGRFTISRLTSKNTLYLQMSSLRPEDTAVYYCARGIRGLDVWGQGTTVTVSS
VL: B8 VL with L15V, S28T, S31I, K42R, K45R, V50A, E70D, N77S, Q89H
notes: human variable regions, mouse IgG2 Fc (H2aM prefix); also called H2M8317N
MFI [2]: 67600 MFI
% maximum blocking [4]: -166%
% maximum blocking [5]: -11%
Emax mean [%] @ 100 nM [7]: 109%
Ratio of HEK293/hPD-L1 to HEK293 parental cells [6]: 53
% Blocking [8]: -87%

The remaining lines, values ahead:

MFI [2]: 316000 MFI
% maximum blocking [4]: 93%
IC50 [4]: < 4 nM
% maximum blocking [5]: 99%
IC50 [5]: < 0.25 nM
Concentration [M] of Antibody at 125% activation [7]: 3.78e-09 M
Emax mean [%] @ 100 nM [7]: 167%
Ratio of HEK293/hPD-L1 to HEK293 parental cells [6]: 246
% Blocking [8]: 94%
B2: H2aM8306N (antibody, V domains shown)
VH: EVQLVESGGGLVQPGGSLRLSCAASGFTFSRFWMSWVRQAPGKGLEWVANINQDGTEKYYVDSVKGRFTISRDNAKNSLYLQMNSLRAGDTAVYYCANTYYDFWSGHFDYWGQGTLVTVSS
VL: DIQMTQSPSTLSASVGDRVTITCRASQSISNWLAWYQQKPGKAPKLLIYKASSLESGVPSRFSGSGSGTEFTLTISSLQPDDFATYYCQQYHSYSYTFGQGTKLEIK
notes: human variable regions, mouse IgG2 Fc (H2aM prefix); also called H2M8306N

MFI [2]: 14900 MFI
% maximum blocking [4]: 98%
IC50 [4]: < 4 nM
% maximum blocking [5]: 76%
IC50 [5]: 0.39 nM
Emax mean [%] @ 100 nM [7]: 113%
Ratio of HEK293/hPD-L1 to HEK293 parental cells [6]: 11
% Blocking [8]: 58%
B3: H2aM8310N (antibody, V domains shown)
VH: QVQLVQSGAEVKKPGASVQVSCKASGYSFTGYYIHWVRQAPGQGLEWMGWINPNSGTKKYAHKFQGRVTMTRDTSIDTAYMILSSLISDDTAVYYCARDEDWNFGSWFDSWGQGTLVTVSS
VL: DIVMTQTPLSSPVTLGQPASISCRSSQTLVHGDGNTYLSWIQQRPGQPPRLLIYKVSNQFSGVPDRFSGSGAGTDFTLKISRVEAEDVGLYFCMQATHFPITFGQGTRLEIK
notes: human variable regions, mouse IgG2 Fc (H2aM prefix); also called H2M8310N

MFI [2]: 163000 MFI
% maximum blocking [4]: 99%
IC50 [4]: < 4 nM
% maximum blocking [5]: 100%
IC50 [5]: < 0.25 nM
Concentration [M] of Antibody at 125% activation [7]: 2.2e-10 M
Emax mean [%] @ 100 nM [7]: 173%
Ratio of HEK293/hPD-L1 to HEK293 parental cells [6]: 73
% Blocking [8]: 94%
B4: H2aM8323N (antibody, V domains shown)
VH: QVQLVQSGAEVKMPGSSVRVSCKASGGIFSSSTISWVRQAPGQGLEWMGEIIPVFGTVNYAQKFQDRVIFTADESTTTAYMELSSLKSGDTAVYFCARNWGLGSFYIWGQGTMVTVSS
VL: EIVLTQSPGTLSLSPGERATLSCRASQSFNFNYLAWYQQKPGQAPRLLIYGASSRATGIPDRFSGSGSGTDFTLTINRLEPEDFGVFYCQQYESAPWTFGQGTKVEIK
notes: human variable regions, mouse IgG2 Fc (H2aM prefix); also called H2M8323N
